Laboratory results taken from article doi:10.1101/758698.

Columns and labels:
Assay in all cases: fluorescence polarization
hBrr2T1 = hBrr2T1 (human, UniProt O75643 395-2129)
hBrr2T1-SS-linear = hBrr2T1-SS-linear (human, UniProt O75643 395-2129, M641C;A1582C)
hBrr2T1-SS-rot+ = hBrr2T1-SS-rot+ (human, UniProt O75643 395-2129, D534C;N1866C)

Measured: binding result

hBrr2T1-SS-rot+, sequence (O75643 395-2129 D534C/N1866C): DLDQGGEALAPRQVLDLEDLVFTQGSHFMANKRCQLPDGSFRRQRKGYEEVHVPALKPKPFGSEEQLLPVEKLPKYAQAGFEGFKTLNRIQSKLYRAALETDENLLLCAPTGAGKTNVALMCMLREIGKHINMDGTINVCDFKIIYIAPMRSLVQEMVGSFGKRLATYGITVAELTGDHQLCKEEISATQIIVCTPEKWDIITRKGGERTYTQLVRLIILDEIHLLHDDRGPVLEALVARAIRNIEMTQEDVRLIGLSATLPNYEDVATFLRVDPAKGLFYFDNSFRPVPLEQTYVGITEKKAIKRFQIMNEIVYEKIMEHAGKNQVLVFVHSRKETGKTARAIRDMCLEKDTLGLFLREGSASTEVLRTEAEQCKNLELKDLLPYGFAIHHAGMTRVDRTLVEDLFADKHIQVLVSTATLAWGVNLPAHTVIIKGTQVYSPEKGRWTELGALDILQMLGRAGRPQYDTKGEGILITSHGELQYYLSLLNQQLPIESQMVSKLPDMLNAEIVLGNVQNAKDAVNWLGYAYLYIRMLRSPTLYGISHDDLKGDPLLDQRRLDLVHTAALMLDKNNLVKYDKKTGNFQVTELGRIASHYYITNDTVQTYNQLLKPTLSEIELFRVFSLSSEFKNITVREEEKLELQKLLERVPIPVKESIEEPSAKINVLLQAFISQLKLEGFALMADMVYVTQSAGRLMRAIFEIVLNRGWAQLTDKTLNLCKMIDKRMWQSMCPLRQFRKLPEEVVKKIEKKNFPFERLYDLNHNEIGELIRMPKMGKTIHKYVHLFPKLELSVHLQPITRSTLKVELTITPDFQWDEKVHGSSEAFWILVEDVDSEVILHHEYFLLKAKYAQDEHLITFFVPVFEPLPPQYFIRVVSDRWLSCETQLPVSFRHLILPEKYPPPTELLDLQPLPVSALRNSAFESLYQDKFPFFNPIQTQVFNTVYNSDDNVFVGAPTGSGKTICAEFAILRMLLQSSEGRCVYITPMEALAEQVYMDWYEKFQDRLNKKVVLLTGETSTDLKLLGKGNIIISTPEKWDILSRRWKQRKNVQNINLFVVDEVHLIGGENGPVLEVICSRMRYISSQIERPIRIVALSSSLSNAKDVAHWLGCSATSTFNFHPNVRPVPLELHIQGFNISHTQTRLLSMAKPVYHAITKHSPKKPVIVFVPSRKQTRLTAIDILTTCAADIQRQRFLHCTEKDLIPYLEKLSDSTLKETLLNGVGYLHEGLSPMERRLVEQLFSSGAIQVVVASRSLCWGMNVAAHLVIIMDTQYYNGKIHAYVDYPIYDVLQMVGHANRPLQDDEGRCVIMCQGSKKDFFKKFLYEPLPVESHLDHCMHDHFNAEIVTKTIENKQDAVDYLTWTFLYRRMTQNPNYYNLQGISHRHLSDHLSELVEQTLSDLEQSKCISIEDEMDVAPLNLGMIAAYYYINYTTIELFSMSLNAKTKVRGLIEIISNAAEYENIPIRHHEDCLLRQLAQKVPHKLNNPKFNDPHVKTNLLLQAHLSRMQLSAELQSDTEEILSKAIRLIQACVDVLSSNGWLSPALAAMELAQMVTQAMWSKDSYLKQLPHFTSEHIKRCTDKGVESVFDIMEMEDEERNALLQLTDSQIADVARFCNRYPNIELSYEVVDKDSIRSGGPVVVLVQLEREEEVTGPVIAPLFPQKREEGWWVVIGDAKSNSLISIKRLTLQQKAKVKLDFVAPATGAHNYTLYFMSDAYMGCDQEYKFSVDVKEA
hBrr2T1-SS-linear, sequence (O75643 395-2129 M641C/A1582C): as the sequence (O75643 395-2129 D534C/N1866C) above, with C140D, M247C, A1188C, C1472N counted along it
hBrr2T1, sequence (O75643 395-2129): as the sequence (O75643 395-2129 D534C/N1866C) above, with C140D, C1472N counted along it

B1: RNA duplex with 3' ss overhang (dsRNA)
RNA 1: CGCGUGCUGGUCGAAAUUUAAUUAUAAACCAGACCGUC
RNA 2: GACCAGCACGCG
binds: all assays above
